For assay [1], the target named is endothelial cell receptor on HAEC (human aortic endothelial cells). The assay is described as follows: competition, 200 ng/ml VEGF121 against 2% BRU-114 microbubbles (competitor) on HAEC, static.
Assay [2] has the same target. The assay is described as follows: competition, 400 ng/ml VEGF121 against 2% BRU-114 microbubbles (competitor) on HAEC, static.
The target is the same in assay [3]. Briefly: competition, 100 ng/ml VEGF121 against 2% BRU-114 microbubbles (competitor) on HAEC, static.
Assay [4] shares this target. Briefly: competition, 250 ng/ml KDR/Fc against 5% DPPE-GTKPPR microbubbles (competitor) on HAEC, static.
The target is the same in assay [5]. Briefly: competition, 500 ng/ml KDR/Fc against 5% DPPE-GTKPPR microbubbles (competitor) on HAEC, static.
Assay [6] has the same target. Briefly: competition, 125 ng/ml KDR/Fc against 5% DPPE-GTKPPR microbubbles (competitor) on HAEC, static.
Assay [7] shares this target. The assay is described as follows: competition, 2500 ng/ml KDR/Fc against 5% DPPE-GTKPPR microbubbles (competitor) on HAEC, static.
Assay [8] has the same target. Briefly: competition, 1000 ng/ml KDR/Fc against 5% DPPE-GTKPPR microbubbles (competitor) on HAEC, static.
For assay [9] the target is unchanged. Briefly: competition, 200 ng/ml VEGF165 against 2% BRU-114 microbubbles (competitor) on HAEC, static.
Assay [10] shares this target. The assay is described as follows: competition, 75 ng/ml VEGF165 against 5% DPPE-GTKPPR microbubbles (competitor) on HAEC, static.
Assay [11] has the same target. Briefly: competition, 50 ng/ml VEGF165 against 5% DPPE-GTKPPR microbubbles (competitor) on HAEC, static.
For assay [12] the target is unchanged. Briefly: competition, VEGF165 against 5% DPPE-GTKPPR microbubbles (competitor) on HAEC, static.
Assay [13] has the same target. The assay is described as follows: competition, 6.25 ng/ml VEGF165 against 5% DPPE-GTKPPR microbubbles (competitor) on HAEC, static.
Assay [14] has the same target. The assay is described as follows: competition, 25 ng/ml VEGF165 against 5% DPPE-GTKPPR microbubbles (competitor) on HAEC, static.
The target is the same in assay [15]. Briefly: competition, 100 ng/ml VEGF165 against 2% BRU-114 microbubbles (competitor) on HAEC, static.
Assay [16] has the same target. The assay is described as follows: competition, 25 ng/ml VEGF165 against 2% BRU-114 microbubbles (competitor) on HAEC, static.
The target in assay [17] is NP-1/Fc (Neuropilin-1/Fc, R&D Systems). The assay is described as follows: fluorescence polarization, competition against OG-labeled BRU-326 (competitor) on NP-1/Fc. In general terms: Polarisation of emitted light reports the rotation of a fluorescent probe.
NP-1/Fc (Neuropilin-1/Fc, R&D Systems), sequence (Q9QWJ9 22-855): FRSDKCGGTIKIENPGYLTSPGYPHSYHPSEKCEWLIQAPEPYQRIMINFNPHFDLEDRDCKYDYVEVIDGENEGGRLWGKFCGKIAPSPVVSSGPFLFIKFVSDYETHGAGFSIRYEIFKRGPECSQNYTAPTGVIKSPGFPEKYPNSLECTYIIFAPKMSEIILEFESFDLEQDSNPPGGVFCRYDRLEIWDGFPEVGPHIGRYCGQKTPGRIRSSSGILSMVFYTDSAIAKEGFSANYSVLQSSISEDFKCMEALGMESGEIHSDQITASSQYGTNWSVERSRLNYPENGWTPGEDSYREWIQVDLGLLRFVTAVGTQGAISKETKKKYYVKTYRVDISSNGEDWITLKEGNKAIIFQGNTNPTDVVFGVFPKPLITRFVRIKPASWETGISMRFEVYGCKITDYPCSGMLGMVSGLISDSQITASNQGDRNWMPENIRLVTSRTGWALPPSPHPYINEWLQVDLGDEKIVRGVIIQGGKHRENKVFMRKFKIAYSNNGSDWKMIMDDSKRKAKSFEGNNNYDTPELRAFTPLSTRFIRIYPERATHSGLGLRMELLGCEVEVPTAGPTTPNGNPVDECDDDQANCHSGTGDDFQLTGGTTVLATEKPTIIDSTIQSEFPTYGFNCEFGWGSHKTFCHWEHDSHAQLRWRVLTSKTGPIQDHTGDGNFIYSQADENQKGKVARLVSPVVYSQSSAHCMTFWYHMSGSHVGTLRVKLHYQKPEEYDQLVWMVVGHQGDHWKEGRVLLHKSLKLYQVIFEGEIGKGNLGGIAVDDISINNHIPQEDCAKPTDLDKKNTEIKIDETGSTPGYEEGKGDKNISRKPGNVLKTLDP
Assay [18] deals with endothelial cell receptor on HAEC (human aortic endothelial cells). Briefly: competition, 12.5 ng/ml VEGF165 against 5% DPPE-GTKPPR microbubbles (competitor) on HAEC, static.
For assay [19] the target is unchanged. Briefly: conjugated fluorescent beads on confluent HAEC, static 30 min, image analysis (Example 2, experiment 1).

pIC50: −log10 of the molar value.

Experimental findings from patent US20110262366A1 are described below.

As usually defined, the IC50 is the concentration that inhibits the measured activity by half. By pIC50 is commonly meant the IC50 on a negative log10 scale, so that one unit is a factor of ten. Read a high pIC50 as a small IC50.

soluble human KDR/Fc chimera (R&D Systems Inc.), sequence (P35968 20-764, change not shown): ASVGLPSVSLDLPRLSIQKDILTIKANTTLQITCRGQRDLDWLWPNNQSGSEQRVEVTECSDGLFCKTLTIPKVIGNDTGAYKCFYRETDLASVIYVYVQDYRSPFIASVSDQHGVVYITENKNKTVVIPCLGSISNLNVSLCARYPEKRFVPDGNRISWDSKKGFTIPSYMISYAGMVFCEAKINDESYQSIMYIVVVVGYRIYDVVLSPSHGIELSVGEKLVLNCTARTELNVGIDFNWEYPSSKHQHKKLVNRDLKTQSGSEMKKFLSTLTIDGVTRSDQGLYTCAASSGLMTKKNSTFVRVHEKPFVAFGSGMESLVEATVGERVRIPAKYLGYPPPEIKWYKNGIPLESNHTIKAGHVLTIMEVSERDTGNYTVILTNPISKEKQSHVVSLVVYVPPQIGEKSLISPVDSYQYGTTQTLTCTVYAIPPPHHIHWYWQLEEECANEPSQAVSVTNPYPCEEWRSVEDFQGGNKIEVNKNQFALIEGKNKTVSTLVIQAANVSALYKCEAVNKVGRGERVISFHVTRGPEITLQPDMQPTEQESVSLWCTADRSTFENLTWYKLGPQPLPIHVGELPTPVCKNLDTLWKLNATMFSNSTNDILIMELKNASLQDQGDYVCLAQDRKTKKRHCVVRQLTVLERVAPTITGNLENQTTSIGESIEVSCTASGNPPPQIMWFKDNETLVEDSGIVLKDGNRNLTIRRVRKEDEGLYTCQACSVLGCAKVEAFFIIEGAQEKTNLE

Turning to “VEGF121 (from UniProt P15692 27-147) (ligand)”, the Bubbles Bound in presence of competitor in assay [1] amounted to 849 bubbles; in assay [2] it was 778 bubbles; in assay [3], 878 bubbles.
With “soluble human KDR/Fc chimera (R&D Systems Inc.) (from UniProt P35968 20-764) (Fc fusion)”, the Bubbles Bound in presence of competitor in assay [4] was found to be 786 bubbles; in assay [5] it was 342 bubbles; in [6], 1030 bubbles; in assay [7], 84 bubbles; in assay [8] it was 75 bubbles.
For the substance “VEGF165 (from UniProt P15692 27-191) (ligand)”, the Bubbles Bound in presence of competitor amounted to 70 bubbles in [9]; 190 bubbles in assay [10]; 226 bubbles in [11]; 1180 bubbles in assay [13]; 342 bubbles in assay [14]; 94 bubbles in [15]. In addition, the figures for the Bubbles Bound in presence of competitor in assay [16] and in assay [18] were 144 bubbles and 599 bubbles, respectively. Moreover, the IC50 in assay [12] was 0.0125 µg/mL. This substance also gave a pIC50 in assay [17] of 6.70.
In the case of “BSA-conjugated fluorescent beads (from UniProt P02769 25-607)”, in assay [19], the Integrated density of bound beads (arbitrary units) was found to be 1.61.
